{
  "source": "paper PMC2660430",
  "parents": {"B1": {"name": "Plrx (wild type plasmoredoxin, recombinant) [P. falciparum] / PfSAHH (recombinant S-adenosyl-L-homocysteine hydrolase) [P. falciparum strain 3D7] (parent)", "chain 1": "MACQVDNPPKTYPNDKTAEYEKYANYMNYLYYYQNNELKKIDSSYFKDKYLGLFFGASWCKYCVTFIDSLNIFKKNFPNVEIIYIPFDRTYQEYQSFLKNTNFYALPFDNYLYICKKYQIKNLPSFMLITPNNNILVKDAAQLIKTDEYINNLKSLIKNYIIHPKTFQFNNRFFDLFRN", "chain 2": "MVENKSKVKDISLAPFGKMQMEISENEMPGLMRIREEYGKDQPLKNAKITGCLHMTVECALLIETLQKLGAQIRWCSCNIYSTADYAAAAVSTLENVTVFAWKNETLEEYWWCVESALTWGDGDDNGPDMIVDDGGDATLLVHKGVEYEKLYEEKNILPDPEKAKNEEERCFLTLLKNSILKNPKKWTNIAKKIIGVSEETTTGVLRLKKMDKQNELLFTAINVNDAVTKQKYDNVYGCRHSLPDGLMRATDFLISGKIVVICGYGDVGKGCASSMKGLGARVYITEIDPICAIQAVMEGFNVVTLDEIVDKGDFFITCTGNVDVIKLEHLLKMKNNAVVGNIGHFDDEIQVNELFNYKGIHIENVKPQVDRITLPNGNKIIVLARGRLLNLGCATGHPAFVMSFSFCNQTFAQLDLWQNKDTNKYENKVYLLPKHLDEKVALYHLKKLNASLTELDDNQCQFLGVNKSGPFKSNEYRY"}, "B2": {"name": "PfTrx1 (wild type thioredoxin) [P. falciparum] / PfSAHH (recombinant S-adenosyl-L-homocysteine hydrolase) [P. falciparum strain 3D7] (parent)", "chain 1": "MVKIVTSQAEFDSIISQNELVIVDFFAEWCGPCKRIAPFYEECSKTYTKMVFIKVDVDEVSEVTEKENITSMPTFKVYKNGSSVDTLLGANDSALKQLIEKYAA", "chain 2": "B1 chain 2"}},
  "data": [
    {"variants_of": "B1", "assay": "SPR", "settings": "with PfSAHH (recombinant S-adenosyl-L-homocysteine hydrolase) [P. falciparum strain 3D7]; Maximum response at end of analyte injection; SAHH on the sensor surface oxidized with 0.5 mM DTNB; 30 µl of analyte, 10 µM in HBS buffer; pre-injection …; parent: 99; read off a plot", "values": [
      {"variant": "chain 1 C63S", "response (RD (normalized))": 28}
    ]},
    {"variants_of": "B2", "assay": "SPR", "settings": "with PfSAHH (recombinant S-adenosyl-L-homocysteine hydrolase) [P. falciparum strain 3D7]; Maximum response at end of analyte injection; SAHH on the sensor surface oxidized with 0.5 mM DTNB; 30 µl of analyte, 10 µM in HBS buffer; pre-injection …; parent: 28; read off a plot", "values": [
      {"variant": "chain 1 C33S", "response (RD (normalized))": 97},
      {"variant": "chain 1 C30S C33S", "response (RD (normalized))": 21}
    ]}
  ]
}
